This data set concerns the molecule itself. The experiment in a line: atomic force microscopy; S-layer (glyco)protein at 50 ug/mL recrystallized on gold-coated SPR and QCM-D sensor surfaces; lattice imaged in contact mode in a liquid cell under 100 mM NaCl.

B1: recombinant S-layer protein rSgsE(131-903), 130 amino acid N-terminal truncation of SgsE (domain or fragment, UniProt Q8VTF1 131-903, looked up)
chain: ATKLDKMRQELKAAVDAKDLKKAEELYHKISYELKTRTVILDRVYGQSTRELLRSTFKADAQALRDSLIYDITVAMKAREAQDAVKAGNLDKAKAALDQVNQYVSKVTDAFKAELQKAAQDAKAAYEAALPPKVESVTAVNAKTLEIKFNKAVDAATVIDNKGTSDTSDDVVKATAITLKAIDDQVPVSTVKASLSDDKKTLKLVVDGAQFFTKRYVVDIKNVKTLDGKDVPAYTTTIDTTDSVRPSVLSFSYADNGLTLKVKFSEPLASVGTVKLYDGTTEISVSPKFTAGDDEMTINLASSSVPVNKDLTLKIFGAVDYNGNVINPNPAELTVKKTTVDITKPVVQSIEAVNTKTVKVTFSEKLLSAPTIKIGGQTASVSVDSTGLVYTATLASALSKGVYAVEVSDYKDLAGNSGDAYTKVVQLKADNTAPKFVSSQVVKINGVEHLVLTFDEEVTTGSNITVVQSSDKYIDENNVLKAVGADLKTTSDNFKLYLPTDGKSKSVALNISSLPKGTYTVTLPNGLVSDLADNPYAERKQITFVRGSDSLTTKPALDKDYDSNGVKADNNNELVFAFTQNLDASALNLSNFNINGLTVTKAVFDGDTKHIRVTLAPGANTWTGTHVITISNIKNTSGLVMDTVTVNEYMKENVAPTFTATLTSADVIRVDFSEPVANATISRALSANNFIVKVDGNVVTVSNVYEDNNATNLVQGSKGYKTVYLKLQSPVTDLSKPITLSATDIVDVNQTGAITDNNVVGNNVSATVVNVAK
notes: S-layer protein SgsE of Geobacillus stearothermophilus NRS 2004/3a, residues 131-903; non-glycosylated; calculated molecular weight 82,800 Da; also called recombinantly produced non-glycosylated form of SgsE; source: E. coli BL21 Star (DE3), purified
On to B1, for which the binding result was “binds”.

Values taken from article PMC4414373, “Relevance of glycosylation of S-layer proteins for cell surface properties” (Acta Biomaterialia, 2015).
